Source: publication PMC7963221 (2021)

How the values were obtained:
Test in all cases: FACS
[1] = target: SARS-CoV-2 RBD (WT) displayed on the surface of yeast (SARS-CoV-2, UniProt P0DTC2)
[2] = target: SARS-CoV RBD displayed on the surface of yeast (SARS-CoV, UniProt P59594)
Rs4231 RBD = target: Rs4231 RBD
A021 RBD = target: A021 RBD
Civet 007-2004 RBD = target: Civet 007-2004 RBD
WIV1 RBD = target: WIV1 RBD
Frankfurt 1 RBD = target: Frankfurt 1 RBD
CS24 RBD = target: CS24 RBD
GD-Pangolin RBD = target: GD-Pangolin RBD
LYRa11 RBD = target: LYRa11 RBD
Pangolin_GX- RBD = target: Pangolin_GX- RBD
SHC014 RBD = target: SHC014 RBD
BM48-31 RBD = target: BM48-31 RBD
RaTG13 RBD = target: RaTG13 RBD

Binder | Kd [1] [pM] | Kd [2] [pM] | Kd (Rs4231 RBD) [pM] | Kd (A021 RBD) [pM] | Kd (Civet 007-2004 RBD) [pM] | Kd (WIV1 RBD) [pM] | Kd (Frankfurt 1 RBD) [pM] | Kd (CS24 RBD) [pM] | Kd (GD-Pangolin RBD) [pM] | Kd (LYRa11 RBD) [pM] | Kd (Pangolin_GX- RBD) [pM] | Kd (SHC014 RBD) [pM] | Kd (BM48-31 RBD) [pM] | Kd (RaTG13 RBD) [pM]
ADG-2 (antibody, V domains shown) VH: EVQLVESGGGLVKPGGSLRLSCAASGFTFSSYYMNWVRQAPGKGLEWVSSISEDGYSTYYPDSLKGRFTISRDSAKNSLYLQMNSLRADDTAVYYCARDFSGHTAWAGTGFEYWGQGTLVTVSS VL: QSVLTQPPSVSGAPGQRITISCTGSSSNIGAGYDVHWYQQLPGTAPKLLIYGSSSRNSGVPDRFSGSKSGTSASLAITGLQAEDEADYYCQSYDSSLSVLYTFGTGTKVTVL | 430 | 390 | 400 | 470 | 350 | 420 | 380 | 450 | 240 | 470 | 1120 | 330 |  | 
ADG-1 (antibody, V domains shown) VH: QVQLVESGGGLVQPGGSLRLSCSASGFTFSRFAMHWVRQAPGKGLEYVSAINLNGDSKYYTDSVRGRFTISRDNSKNTLYLQMSSVRPDDTAFYYCVKDGGYYDSSGPGHWGQGTLVTVSS VL: EIVLTQSPATLSLSPGERATLSCRASENILHYLAWYQQKPGQAPRLVIYDASRRATGIPGRFSGSGAGTDFTLTINSLEPEDFAVYYCQQRANWPQNFGGGTKVEIK | 730 | 1090 |  | 950 | 780 | 680 | 970 | 970 | 870 | 790 |  |  |  | 
ADG-3 (antibody, V domains shown) VH: EVQLVESGGGLIQPGGSLRLSCAASGFPFKGTYMTWVRQAPGKGLEWVSIIYSGGDTYYADSVKGRFTISRDNSKNTLFLQMNSLRVEDTAMYYCARDREMAIITERTYGLDVWGQGTMVTVSS VL: QSVLTQPPSASGTPGQRVTISCSGGSSNIGSNSVNWYQQLPGTAPKLLIYSNSQRPSGVPDRFSGSKSGTSASLAISGLQSEDEADYYCAAWDDSLNTFRYVFGTGTKVTVL | 550 | 910 | 1070 | 910 | 900 | 720 | 960 | 1050 | 680 | 920 |  | 930 | 3090 | 880
